Assay results taken from patent US20200407397A1 (RESEARCH FOUNDATION FOR THE STATE UNIVERSITY OF NEW YORK, published 2020).
Residue numbers refer to the chain shown, from its start. In names and notes the source's numbering stands. Where no end group is shown, it is not given here.

B1: FLCN P228A mutant (FLAG-tagged) (other)
chain: MNAIVALCHFCELHGPRTLFCTEVLHAPLPQGDGNEDSPGQGEQAEEEEGGIQMNSRMRAHSPAEGASVESSSPGPKKSDMCEGCRSLAAGHPGYISHDKETSIKYVSHQHPSHPQLFSIVRQACVRSLSCEVCPGREGPIFFGDEQHGFVFSHTFFIKDSLARGFQRWYSIITIMMDRIYLINSWPFLLGKVRGIIDELQGKALKVFEAEQFGCPQRAQRMNTAFTAFLHQRNGNAARSLTSLTSDDNLWACLHTSFAWLLKACGSRLTEKLLEGAPTEDTLVQMEKLADLEEESESWDNSEAEEEEKAPVLPESTEGRELTQGPAESSSLSGCGSWQPRKLPVFKSLRHMRQVLGAPSFRMLAWHVLMGNQVIWKSRDVDLVQSAFEVLRTMLPVGCVRIIPYSSQYEEAYRCNFLGLSPHVQIPPHVLSSEFAVIVEVHAAARSTLHPVGCEDDQSLSKYEFVVTSGSPVAADRVGPTILNKIEAALTNQNLSVDVVDQCLVCLKEEWMNKVKVLFKFTKVDSRPKEDTQKLLSILGASEEDNVKLLKFWMTGLSKTYKSHLMSTVRSPTASESRN
notes: Full FLCN protein with a point mutation in the FLCN-10 region, expressed in HEK293 cells; not shown: FLAG tag (immunoprecipitated using anti-FLAG agarose)
B2: FLCN-M222A-FLAG (other)
chain: B1 chain with M222A, A228P
notes: Expressed in HEK293, UOK257 and ccRCC cells; also called M222A mutant; not shown: FLAG tag
B3: FLCN-F226A-FLAG (other)
chain: B1 chain with F226A, A228P
notes: Expressed in HEK293 and UOK257 cells; not shown: FLAG tag
B4: FLCN R221A mutant (FLAG-tagged) (other)
chain: B1 chain with R221A, A228P
notes: as for B1
B5: FLCN-10-Rhodamine B (peptide)
peptide: AQRMNTAFTP
modifications: also: Rhodamine B label, site not given here
notes: Labelled form used for fluorescence anisotropy and for the ex vivo tissue treatment; also called FLCN-10-Rhod-B; Rhodamine-B-labeled FLCN-10

How the values were obtained:
[1] = biological target: Lactate dehydrogenase A (LDHA), endogenous (human, UniProt P00338 2-332); experiment: anti-FLAG IP from HEK293, immunoblot for LDHA
recombinant LDHA = recombinant LDHA (human, UniProt P00338 1-332); experiment: fluorescence anisotropy, labelled peptide with recombinant LDHA
Description: Fluorescence anisotropy was measured in triplicate using a SpectraMax i3 equipped with rhodamine fluorescence polarization module (lex\lem.535 nm/595 nm). Curve fitting was done in KaleidaGraph 4.0.

| binding result [1] | binding result (recombinant LDHA) | Binder |
| --- | --- | --- |
| no binding | – | B1 |
| binds | – | B2 |
| no binding | – | B3 |
| no binding | – | B4 |
| – | binds | B5 |
